Measured values as given in patent US20080260729A1 (ZENYTH OPERATIONS, published 2008).

T1: 6×His.mVEGF-B10-108 (murine, UniProt P49766 31-129)
T1 construct: not shown: additional 16 N-terminal amino acids with 6xHis tag and Genenase I cleavage site
T1 sequence: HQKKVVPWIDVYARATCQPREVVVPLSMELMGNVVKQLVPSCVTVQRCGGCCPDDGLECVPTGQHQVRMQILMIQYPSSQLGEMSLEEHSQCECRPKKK

T2: human VEGF-B10-108 (human, UniProt P49765 31-129)
T2 construct: also called VB108
T2 sequence: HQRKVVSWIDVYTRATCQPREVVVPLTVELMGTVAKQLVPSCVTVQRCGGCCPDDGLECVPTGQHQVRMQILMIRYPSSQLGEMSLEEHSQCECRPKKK


Assays:
[1] = biological target: human VEGF-B (Example 10, form not stated) (human) (UniProt P49765); assay: BIAcore dissociation rate, ratio
[2] = biological target: human VEGF-B (Example 10, form not stated) (human) (UniProt P49765); assay: competition ELISA, plate bound human VEGF-B, soluble VEGF-B titrated
[3] = biological target: human VEGF-B (Example 10, form not stated) (human) (UniProt P49765); assay: SPR (BIAcore), immobilised human VEGF-B, Fab injected at several concentrations
[4] = biological target: human VEGF-B (Example 10, form not stated) (human) (UniProt P49765); assay: SPR (BIAcore), immobilised human VEGF-B
6×His.mVEGF-B10-108 [5] = biological target: T1, 6×His.mVEGF-B10-108; assay: ELISA on plate-bound antigen, HRP secondary, TMB
Procedure: (§1) Monoclonal antibodies raised against hVEGF-B were tested for cross-reactivity with mVEGF-B using a standard ELISA format. mAbs were incubated with plate bound hVEGF-B₁₀₋₁₀₈ or 6×His.mVEGF-B₁₀₋₁₀₈ at a concentration of 1.25 μg/ml and bound mAb visualized using a HRP-conjugated secondary reagent and TMB substrate.

human VEGF-B10-108 = biological target: T2, human VEGF-B10-108; assay: SPR (BIAcore 2000), VEGF-B10-108 amine-coupled on chip, mAb injected 125-0.98 nM
Procedure: A Biosensor-based approach was used for kinetic analysis of mAb binding to target VEGF-B using a BIAcore™ 2000 surface plasmon resonance instrument (Biacore AB, Uppsala, Sweden). A biosensor chip was activated for covalent coupling of VEGF-B using N-ethyl-N′-(3-dimethylaminopropyl)-carbodiimide hydrochloride (EDC) and N-hydroxysuccinimide (NHS) according to the supplier's (Biacore AB, Uppsala, Sweden) instructions. A solution of 5 μg/ml VEGF-B₁₀₋₁₀₈ in 20 mM sodium acetate, pH 4.8 was prepared and an aliquot (35 μl) was injected at a flow rate of 2 μl/min to achieve approximately 500-600 response units (RU) of coupled protein. Finally, 1 M ethanolamine was injected as a blocking agent.
For kinetics measurements, two-fold serial dilutions of test antibody starting at 125n M to 0.98 nM were injected in BIAcore™ buffer (20 mM HEPES, pH 7.8, 0.15 M NaCl, 3.4 mM EDTA, 0.005% Tween-20) with 1 mg/ml bovine serum albumin (BSA) at 25° C. at a flow rate of 15 μl/min. Simultaneous analysis of association (kₐ) and dissociation (kd) rate constants using BIAevaluation™ V3.02 software (Biacore AB, Uppsala, Sweden) was used to determine the equilibrium binding constant (KD).

6×His.mVEGF-B10-108 [6] = biological target: T1, 6×His.mVEGF-B10-108; assay: ELISA on plate-bound 6×His.mVEGF-B10-108
Procedure: as §1

| Relative koff (koff CDR-Fab variant/koff murine-human chimera) [1] | Relative VEGF-B binding affinity (IC50 CDR-Fab variant/IC50 murine-human chimera) [2] | Kd (human VEGF-B10-108) [nM] | koff (human VEGF-B10-108) [s⁻¹] | kon (human VEGF-B10-108) [M⁻¹ s⁻¹] | Binder | further results |
| --- | --- | --- | --- | --- | --- | --- |
| 3.7 | 2.25 | – | – | – | 2H10 CDR-grafted human germline Fab (CDR-Fab) (Fab, V domains shown) VH: QVQLVQSGAEVKKPGASVKVSCKASGYTFTGFWIHWVRQAPGQGLEWMGHINPGNGGTNYNEKFKRRVTMTRDTSISTAYMELSRLRSDDTAVYYCARSYSNYVRAMDYWGQGTLVTVSS VL: DIQMTQSPSSLSASVGDRVTITCRASQDISNFLNWYQQKPGKAPKLLIYYTSTLHSGVPSRFSGSGSGTDFTLTISSLQPEDFATYYCQQGKTLPPTFGGGTKVEIK | Kd [3]: 0.66 nM |
| 1.4 | 1.42 | – | – | – | CDR-Fab framework variant H73 (Fab, V domains shown) VH: QVQLVQSGAEVKKPGASVKVSCKASGYTFTGFWIHWVRQAPGQGLEWMGHINPGNGGTNYNEKFKRRVTMTRDKSISTAYMELSRLRSDDTAVYYCARSYSNYVRAMDYWGQGTLVTVSS VL: DIQMTQSPSSLSASVGDRVTITCRASQDISNFLNWYQQKPGKAPKLLIYYTSTLHSGVPSRFSGSGSGTDFTLTISSLQPEDFATYYCQQGKTLPPTFGGGTKVEIK | Kd [4]: 0.337 nM; fold of KD against the 2H10 murine Fab [4]: < 3 fold |
| – | – | 2.71 | 0.000132 | 48700 | murine monoclonal antibody 4E12 (antibody, V domains shown, Whole murine mAb from hybridoma; also called mAb 4E12) VH: QVQPQQPGAELVKPGASVKMSCKASGDTFTNSWIGWVTQRPGQGLEWIGDIFPGSGHTNYNEKFKNRATLTVDTSSSTAYMLLSSLTSDDSAVYYCVIENYAWFAYWGQGTLVTVSA VL: DIVMTQSQKFMSSSVGDRVSVTCKASQNVNTNVAWYQQKQGQSPRPLIYSASSRCSGVPDRFTGSGFGTDFTLTISNVQSEDLAEYFCQQYHSFPLTFGAGAKLDLK | binding result (6×His.mVEGF-B10-108 [5]): no binding (tested: 1.25 µg/ml) |
| – | – | – | – | – | 2H10 murine Fab (Fab, V domains shown) VH: QVQLQQPGTELVKPGASVKLSCKASGYTFTGFWIHWVKQRPGQGLEWIGHINPGNGGTNYNEKFKRMATLTVDKSSSTAYMQLSSLTSEDSAVYYCARSYSNYVRAMDYWGQGTSVTVSS VL: EIQMTQTTSSLSASLGDRVTISCRASQDISNFLNWYQQKPDGTVKLLIYYTSTLHSGVPSRFSGSGSGTDYSLTISNLEQEDIATYFCQQGKTLPPTFGGGTKLEIK | Kd [3]: 0.115 nM |
| 1 | 1 | – | – | – | mouse-human chimeric Fab (2H10) (Fab, V domains shown) VH: QVQLQQPGTELVKPGASVKLSCKASGYTFTGFWIHWVKQRPGQGLEWIGHINPGNGGTNYNEKFKRMATLTVDKSSSTAYMQLSSLTSEDSAVYYCARSYSNYVRAMDYWGQGTSVTVSS VL: EIQMTQTTSSLSASLGDRVTISCRASQDISNFLNWYQQKPDGTVKLLIYYTSTLHSGVPSRFSGSGSGTDYSLTISNLEQEDIATYFCQQGKTLPPTFGGGTKLEIK | – |
| – | – | 0.18 | 6.77e-05 | 385000 | murine monoclonal antibody 2H10 (antibody, V domains shown, Whole murine mAb from hybridoma; also called mAb 2H10) VH: QVQLQQPGTELVKPGASVKLSCKASGYTFTGFWIHWVKQRPGQGLEWIGHINPGNGGTNYNEKFKRMATLTVDKSSSTAYMQLSSLTSEDSAVYYCARSYSNYVRAMDYWGQGTSVTVSS VL: EIQMTQTTSSLSASLGDRVTISCRASQDISNFLNWYQQKPDGTVKLLIYYTSTLHSGVPSRFSGSGSGTDYSLTISNLEQEDIATYFCQQGKTLPPTFGGGTKLEIK | binding result (6×His.mVEGF-B10-108 [6]): binds |
| – | – | 2.82 | 0.000153 | 54500 | murine monoclonal antibody 1C6 (antibody, V domains shown, Whole murine mAb from hybridoma; also called mAb 1C6) VH: QVQLQQSGPELVKPGASVRISCKASGYTFTTFYIHWVKQRPGQGLEWIAWFYPGNVNTNYNEKFKDKATLTADKSSSAAYLQLNSLTSEDSAVYFCTRSPYYGYVFDFWGQGTTLTVSS VL: DIVMTQSHKFMSTSVGDRVSITCKASQDVGSAVAWYQQKPGQSPKLLIYWASTRHTGVPDRFTGSGSGTDFTFTISNVQSEDLADYFCQQYSSSLTFGAGATKLEL | binding result (6×His.mVEGF-B10-108 [6]): binds |
